Among the data in publication PMC13572408 are stoichiometry N values, retold here.

This test has as its target His6-AstR (Acinetobacter baumannii ATCC 17978VU). Put plainly: SEC; purified His6-AstR; size estimated with standard curves; Size Exclusion Buffer (50 mM Tris, 300 mM NaCl, pH 8).

As for His6-AstR (natural protein), the stoichiometry N was 2.
